According to the supplement of paper PMC9170038:

Tested on: MS2 coat protein
Experiment: apparent KD of MS2 coat protein; designed switch direction (-1 OFF switch, 1 ON switch): -1; higher = weaker reporter binding
In short: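 Apparent KD, taken as the median over clusters for each design, was obtained by curve-fitting normalised cluster fluorescence. Designed RNA switches had been transcribed on Illumina chips by stalled E. coli RNA polymerase and titrated with SNAP-549-labelled MS2 coat protein, doubling from 0.7 or 1.5 nM to 3 µM.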

[1] = input ligand: microRNA oligo, concentration not stated
[2] = Eterna round: R95, input ligand: microRNA oligo, concentration not stated
[3] = Eterna round: R95, input ligand: FMN 200 uM
[4] = Eterna round: R95, input ligand: none

Sequence	apparent KD of MS2 coat protein (input ligand: FMN 200 uM) [nM]	apparent KD of MS2 coat protein (input ligand: none) [nM]	apparent KD of MS2 coat protein [1] [nM]	apparent KD of MS2 coat protein [2] [nM]	apparent KD of MS2 coat protein [3] [nM]	apparent KD of MS2 coat protein [4] [nM]
CUGUGCACGCUGCGGUCCUACAUGAGGAUCACCCAUGUGGUCUGGUGGCGUGGGUCACCGGACUUGGCUCGUCUUGU [salish99_S_TOV1_R5_064] (Eterna round: R97, puzzle: Sensor, turn-off variant 1)	35.7	42.3				
UGGCUACAUGAGGAUCACCCAUGUCAGGAUAUGCCGUUAAAUUGACAUCAACGUACGGGUAGAAGGGACUGCGU [1st #8] (Eterna round: R97, puzzle: Exclusion 1)	43.2	45.6				
AAGUACCGGUGAGGAUAUUUUUAAUAGAACUUUAUGAUAUACAUGAGGAUCACCCAUGUUACUUUAAAGAAGGCAUCGGAUAAA [Mat - Exclusion NG 2 - Mod of JL - D87] (Eterna round: R96, puzzle: Exclusion NG 2)			12			
ACUUUUAGUGGUCAAACUCACAUGAGGAUCACCCAUGUUUACAGGCUUAGGUGCUUGUCUUAUACUAAGGUUUACCG [Eternabot (L1) Solution 44] (Eterna round: R97, puzzle: Sensor, turn-off variant 1)	96.9	122				
UUUGUGUCAGGAUAUGAGUCGUAGAACAAUAGUACUACGUCUCAGAAGGGACAUGAGGAUCACCCAUGUGCCUC [Fiskers Ex 4 Super Stable 44 mod 27] (puzzle: Exclusion 4)				34.9		
ACGACCUGAGGAUAUACAUGAGGAUCACCCAUGUAUGCAACAGCCGGGAAAUCCCGAUGUAGAAGGCAGGAAAA [Eternabot (Original) Solution 26] (Eterna round: R97, puzzle: Exclusion 3)	252	32.2				
GCUAGAGCAGGAUAUUCAAAACCUCACAUGAGGAUCACCCAUGUGGCCGAAAGGCCGGGAGGAGAAGGGCUCUAGC [Mat - Exclusion 5 - Eli mod - D84] (Eterna round: R96, puzzle: Exclusion 5)	42.4	19.4	14.3			
GUUAACGUAGGAUAUUAGUACAUACACAUGAGGAUCACCCAUGUUUAGUGGGUCUAAGAAUAAGAAGGGCGAAGAA [EX5 #25] (Eterna round: R97, puzzle: Exclusion 5)	117	130				
UUAAAUCAUGUAGGAUAUGCUUUGCAAAGCGAAGCAGAAGGACAUGAGGAUCACCCAUGUGCUAGCGUCCGAGAACGGAUGCAA [Mat - Exclusion NG 1 - Mod of JL - D65] (Eterna round: R96, puzzle: Exclusion NG 1)	501	61.5	60.6			
AUUAUAUAGUCAGGAUAUAGAAUAUUAUUUUAACAUGAGGAUCACCCAUGUAACCUUAUGUGUAGCUAGAAGGGACAUUUAUUA [Title] (Eterna round: R96, puzzle: Exclusion NG 2)			76.6			
AUAUUACGAGGAUAUCGUCUCUCCCACAUGAGGAUCACCCAUGUUAUCCAUGUUUCGUUUCGAGAAGGCGUAAGUU [JR_E5_Sub071] (puzzle: Exclusion 5)				65.2		
AGAGUGCUGCGAGGAUAUACAUGAGGAUCACCCAUGUGGUCCUGUGAGGCAAAGCCUCACAGGAUGUAGAAGGCGCAGUACUCA [Mat - Exclusion NG 2 - Mod of JL - D46] (Eterna round: R96, puzzle: Exclusion NG 2)	57	19.9	14.2			
UUACCAUGCCGCCUAAUAGCUUUUUGCUCGUCUUAUAUUACAUGAGGAUCACCCAUGUAAAACAUGUGGCGUGACCU [JL ViennaUCT Maridi mod 1] (puzzle: Sensor v3, turn-off variant 2)				112	79.8	87.3
AUGGGUCCUCACGGAGCUACAUGAGGAUCACCCAUGUGGAUUGAGGAUAUCGUAAGCCGACGGCACGAGAAGGCAGUUUACUGU [Ex NG3 #97] (Eterna round: R96, puzzle: Exclusion NG 3)	47.5	23.5	22.8			
UAAAAGGAUGUCAGGAUAUGCGCUUGGGAUCAAGAGCAGAAGGGACAUGAGGAUCACCCAUGUAACGGUGCGAA [Oraninus] (puzzle: Brourd's mod of Exclusion 4)				33.9	36.4	44.5
UUUAAUUUUUUUUUUUUACAAGCUUUUUGCUCGUCUUAUACAUGAGGAUCACCCAUGUAGGUGGAGGGUAAAUUAUC [JMF 90] (puzzle: Sensor v3, turn-off variant 2)				44.1	15.6	13.1
AUAAUGUGAGGAUAUCACGGCCCGGAGAAUCCGGUAAACGAUGAGAAGGCACAUGAGGAUCACCCAUGUUCCUG [EX4 A.4] (Eterna round: R97, puzzle: Exclusion 4)	44.3	18.3				
CGGUACUGAGGAUAUACAUGAGGAUCACCCAUGUGUACUAGCUAGCGUACUGGCAUUAGUAGAAGGCGGUGCUG [JL-ex3-3.20 Brourd mod] (puzzle: Exclusion 3)				11.5	19.8	13.2
AGUCGUAGACAGGAUAUGCGGCUAAUAAAUAAAGCAGAAGGGUCUACUUGAGGAUCACCCAAGUGGGCGGUUUA [jl-ex6-4.20 ViennaUCT mod] (Eterna round: R97, puzzle: Exclusion 6)	96.3	23.1				
AUGACAGGACAUGAGGAUCACCCAUGUACACGACCAAUGACCGAGGAUAUCGAUUGCAUGCAGGUCGAGAAGGCGGAGUAUCCA [Eternabot solution 3] (Eterna round: R96, puzzle: Exclusion NG 3)	18.2	28.1	30.9			
CCUUUGUCAGGAUAUCAGAACGCGCUCGAAAGGAACGCAAAUGAGAAGGGACAUGAGGAUCACCCAUGUAAAGA [Enenrixe] (puzzle: Exclusion 4)				42.8	158	45
CUUAGACAUGAGGAUCACCCAUGUGAGGAUAUGAUGCGAAUAAGUAAGUAAUAAAGCAUCAGAAGGCACAUAUG [Mat - Mod of Hyphema D28] (puzzle: Exclusion 1)				186	235	222
CUGUUUUUCGCAGGAUAUGCUCCUCCAUUAUUUGCAGAAGGGCGUUAAACAUGAGGAUCACCCAUGUAUGGUAAUGACUAUUUC [JR_ExcNG1_Sub065] (Eterna round: R96, puzzle: Exclusion NG 1)	125	40.7	43.6			
GGUGCGUUUGUGAGGAUAUGCUGGUCCUUGGUUCGGCAGAAGGCACAUGAGGAUCACCCAUGUGGUGUCGUUCC [salish99_Bmod_Ex4_047] (puzzle: Brourd's mod of Exclusion 4)				13.9		
UUUAAUUUUUUUUUUUUACAAGCUUUUUGCUCGUCUUAUACAUGAGGAUCACCCAUGUAGGUGGAGGAUAAAUUAUC [JMF 36] (puzzle: Sensor v3, turn-off variant 2)				56.1	23.5	25.5
